Earlier results as cited in article PMC10582360, “A nanoparticle platform for combined mucosal healing and immunomodulation in inflammatory bowel disease treatment” (Bioactive materials, 2023).

Tested on: dipeptidyl peptidase IV (DPP-IV)
Conditions: ref [4]
Source text: Teduglutide, a GLP-2 analog with prolonged half-life, is commercialized as a daily subcutaneous injection (Gattex®, Revestive®) for its use in short bowel syndrome (SBS) in patients who are dependent on parenteral support. A second long-acting GLP-2 analog, glepaglutide (Zealand Pharma), has just ...

For Glucagon-like peptide 2 [GLP-2], the “cleavage by DPP-IV” value is given as “rapidly cleaved”.
